Substrate: O=C(O)C[C@H](O)C(=O)O
Assay: purified protein
Format: biochemical, Methanocaldococcus jannaschii
Conditions: pH 7.2, 50 mM Tris-HCl, 70 °C

B1: MjFH (MjFHαβ), holo, Fe-S reconstituted (Methanocaldococcus jannaschii DSM 2661) (protein)
chain 1: MKISDVVVELFREAAIYLPEDVKNALEEAYKKESSEISKNTLKAIIENNKIAEETQVPLCQDTGVPIVFLKIGKNINSSEIMKIIEEIKEGVKKATEEVPLRPNVVHPLTRENFKTNVGLNSPFINIEFDESLDREIEIIAFPKGAGSENMSALKMLKPSDGIEGIKNFVLETIANAGGKPCPPIVVGIGIGGTADVALKLAKKALLRKIGERHRDKEIANLEKELLEKINSLGIGAMGLGGDITALDVFIEIAGCHTASLPVGICIQCWADRRAIKRIKLDAKL
chain 2: MEYTFNKLTKKDVKKLKVGDIVYLNGKIYTARDEAHLKIIEMLKSNEKLPFDLNESIIYHAGPIMKKVNDSWVCVSIGPTTSARMNDVEEEFIKLTNISAIVGKGGMKKELLKTFEDYGVVYLAAPGGCAALLANSVKRVDNVYFLDELGMPEAVWELEVNNFGPLIVAMDSHGNSIYEEVNKKVYEKLNELIGL
- Km: 1554 ± 169 µM

From doi:10.1101/2022.09.03.506457v1
